Source: IntAct's records for PubMed 22587461

B1: Translocated intimin receptor Tir (Escherichia coli O127:H6 (strain E2348/69 / EPEC)), B7UM99 (parent)
chain: MPIGNLGNNVNGNHLIPPAPPLPSQTDGAARGGTGHLISSTGALGSRSLFSPLRNSMADSVDSRDIPGLPTNPSRLAAATSETCLLGGFEVLHDKGPLDILNTQIGPSAFRVEVQADGTHAAIGEKNGLEVSVTLSPQEWSSLQSIDTEGKNRFVFTGGRGGSGHPMVTVASDIAEARTKILAKLDPDNHGGRQPKDVDTRSVGVGSASGIDDGVVSETHTSTTNSSVRSDPKFWVSVGAIAAGLAGLAATGIAQALALTPEPDDPTTTDPDQAANAAESATKDQLTQEAFKNPENQKVNIDANGNAIPSGELKDDIVEQIAQQAKEAGEVARQQAVESNAQAQQRYEDQHARRQEELQLSSGIGYGLSSALIVAGGIGAGVTTALHRRNQPAEQTTTTTTHTVVQQQTGGNTPAQGGTDATRAEDASLNRRDSQGSVASTHWSDSSSEVVNPYAEVGGARNSLSAHQPEEHIYDEVAADPGYSVIQNFSGSGPVTGRLIGTPGQGIQSTYALLANSGGLRLGMGGLTSGGESAVSSVNAAPTPGPVRFV

Variants of: B1
Details: with anxa2_human ANXA2, P07355
Sequence of anxa2_human ANXA2, P07355 (P07355 whole entry): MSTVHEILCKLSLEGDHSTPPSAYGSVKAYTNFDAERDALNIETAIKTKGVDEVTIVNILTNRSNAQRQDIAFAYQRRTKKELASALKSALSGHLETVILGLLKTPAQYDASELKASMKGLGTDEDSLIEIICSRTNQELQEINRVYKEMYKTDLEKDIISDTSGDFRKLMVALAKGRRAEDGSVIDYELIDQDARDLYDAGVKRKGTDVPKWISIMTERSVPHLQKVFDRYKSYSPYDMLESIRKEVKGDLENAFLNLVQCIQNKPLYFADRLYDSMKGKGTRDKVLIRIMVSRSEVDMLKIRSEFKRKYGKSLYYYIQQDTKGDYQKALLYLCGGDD

Row | Variant | effect of a mutation on the interaction
1 | Y474S | with no effect
